# The RNAGym collection of RNA variant scans (doi:10.7554/elife.80360)
# B1: Hairpin Ribozyme (parent)
# chain: GUCCUCUUUCACGUGCGCGUGAAAGAGAGAAGUGAACCAGAGAAACACACGUUGUGGUAUAUUACCUGGUA
# Variants of: B1
# Test: self-cleavage, relative activity (ratio to wild type); higher = more cleavage; co-transcriptional
row,Variant,self-cleavage
1,G13C C50A,0.137
2,C18A C38A,0.132
3,U20G G25C,0.643
4,G17C A26C,0.655
5,A11G G56A,0.229
6,A36G U52G,0.882
7,C6A G19U,0.505
8,U60G U62G,0.222
9,A24C A49G,0.535
10,U8A U14G,0.401
11,G51C U67C,0.182
12,U9A A64U,0.131
13,A22G G29U,0.0873
14,C3G A24U,0.248
15,U20A A41U,1.16
16,A43U A61C,0.123
17,U9C A30U,0.12
18,G19C G27C,0.133
19,A24G A30U,0.124
20,A44G A64U,0.102
21,G1C G29U,0.129
22,U33G U62G,0.0966
23,U67G G69C,0.13
24,G68U,0.254

row,Variant,self-cleavage
1,C3G C18U,0.341
2,C3U A24G,0.494
3,C3U G51A,0.467
4,A28G U33C,0.155
5,U2G A39C,0.177
6,G27A G42A,0.153
7,A23U G57U,0.307
8,U14C G25C,0.728
9,C50G C65G,0.161
10,G1C G56U,0.293
11,A36U A71G,0.829
12,A30G G54C,0.178
13,U7G A26C,0.0432
14,G13C A59G,0.13
15,C37G G54A,0.173
16,C18A G25A,0.681
17,A22U G51C,0.607
18,A64G G68C,0.122
19,C4A G17C,0.225
20,U5C C18A,0.699
21,C48G U67C,0.117
22,C46A A59U,0.109
23,C16A A26U,0.607
24,G17A A45C,0.0797

row,Variant,self-cleavage
1,G40U A47C,0.118
2,C3G C66U,0.251
3,U55G U67G,0.233
4,C4A C6U,0.143
5,A39U U67A,0.73
6,G17A A35U,0.778
7,C16U G51U,1.03
8,C6A C65U,0.265
9,C18A U20A,0.917
10,A31C C66U,0.225
11,A45U A49C,0.134
12,G1U G27C,0.113
13,C38U A59C,0.228
14,A30C G69A,0.0574
15,G19U A61U,0.183
16,A11C G54A,0.508
17,C46G U63A,0.279
18,A26C G32C,0.175
19,A61U A71U,0.171
20,C38G A61C,0.133
21,U20A A44G,0.112
22,G25U C46G,0.153
23,C3U C10A,0.276
24,A26G G54C,0.457

row,Variant,self-cleavage
1,U14A U55C,0.206
2,A24C A30U,0.146
3,A11U C66G,0.0569
4,U9C G13C,0.447
5,U14G G51C,0.734
6,C65G U70G,0.19
7,G27C G42U,0.172
8,U9C A61G,0.348
9,A45C C50G,0.211
10,A11G A45G,0.271
11,A24C A43G,0.157
12,A11U U60A,0.708
13,G15A G51U,0.82
14,A41G C66U,0.682
15,C10G G15U,0.851
16,U14A A61C,0.331
17,U53C A61C,0.142
18,U14C A31G,0.737
19,A24C C50G,0.326
20,A41C A64G,0.173
21,U5C G29A,0.106
22,A41U G69A,0.685
23,A30U C48A,0.209
24,C37A U58C,0.349

row,Variant,self-cleavage
1,G51U U63C,0.136
2,G1U A30C,0.178
3,A11U G27A,0.406
4,U2A G69A,0.215
5,G42C U52C,0.427
6,C16U C37A,0.361
7,C10A G34U,1.01
8,U2G G27A,0.139
9,G34C U67G,0.517
10,U8G G57U,0.19
11,A39C A43C,0.14
12,C38U U70G,0.39
13,C12G U20C,1.01
14,A30U A59U,0.0496
15,G21U A39G,0.293
16,A49G G56A,0.204
17,C18A G68U,0.239
18,C3U G42C,0.218
19,A35C U62C,0.103
20,U7G C48G,0.153
21,G56U A64G,0.0832
22,A49G A64C,0.248
23,U20G A31U,0.0664
24,G19A C50G,0.247

row,Variant,self-cleavage
1,A43U G57A,0.119
2,C12U G34U,1.18
3,A59C A64G,0.1
4,A11U A36G,0.7
5,G13C G40C,0.11
6,U33A C38U,0.0932
7,U8C G40C,0.0998
8,G1C U7A,0.229
9,G21A U55A,0.177
10,U8G A71G,0.993
11,C12U U70G,0.659
12,C12G C50A,0.306
13,C10G U63A,0.158
14,C10G U20G,0.561
15,U33A A61G,0.0674
16,U20A G40A,0.242
17,G57C A59U,0.159
18,G27U A41C,0.423
19,U8G U9C,0.595
20,C12U,0.887
21,A23U A64U,0.178
22,C12G C16A,0.84
23,A41U A44C,0.115
24,U53A U70G,0.987

row,Variant,self-cleavage
1,U14C A41U,1.34
2,U7A U55C,0.175
3,A39C G57U,0.16
4,A11C A41G,0.701
5,A35C U62G,0.172
6,C6U A39U,0.381
7,G13C A71U,0.41
8,A22U C38G,0.184
9,A43C A71U,0.159
10,A43G U60C,0.0979
11,G15U C46U,0.187
12,G34C G40U,0.541
13,C16G C66G,0.0535
14,A47G A64G,0.0949
15,A30C U52A,0.214
16,G19A U33C,0.0941
17,A22C A64G,0.467
18,G19A U33G,0.175
19,U8C A45U,0.257
20,U20G G21U,0.754
21,G40C G57U,0.106
22,G25U A47U,0.205
23,U55C U67G,0.113
